Laboratory results reported in the RNAGym collection of RNA variant scans (doi:10.1093/nar/gkz1192).

B1: CPEB3 Ribozyme (parent)
chain: UAACAGGGGGCCACAGCAGAAGCGUUCACGUCGCAGCCCCUGUCAGAUUCUGGUGAAUCUGCGAAUUCUGCUGUAUAUCUC

Variants of: B1
Assay: self-cleavage, relative activity (ratio to wild type); higher = more cleavage; in vitro, sequencing
Summary of the method: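 Libraries of CPEB3 self-cleaving ribozyme mutants came from rounds of error-prone PCR and carried barcodes, which DNA sequencing matched to variants. In vitro transcription used T7 RNA polymerase at 37°C for 5 hours, with a further 15 min in DNase I before EDTA stopped the reaction; the ribozymes cleaved during both steps. The RNA was reverse transcribed with template switching and sequenced on Illumina. Relative activity is the cleaved/total read fraction of a variant divided by that of the unmutated ribozyme, averaged over three batches with at least 5 reads.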

Row | Variant | self-cleavage
1 | U54G C71A | 0.42
2 | G55A A77G | 0.96
3 | G55U U60A | 0.27
4 | G55U U60C | 0.27
5 | G55A U78A | 1
6 | G55A U78C | 0.75
7 | A57C U80C | 0.67
8 | U54C U66G | 0.39
9 | U54C U66C | 0.37
10 | U54C U66A | 0.52
11 | U54G G63A | 0.91
12 | U54G G63U | 1.03
13 | U54C U80C | 1.09
14 | U54C U80A | 1.17
15 | G55U U66C | 0.49
16 | A56U U78A | 0.95
17 | A56U U78C | 0.61
18 | A56U U78G | 0.58
19 | U54A U76A | 1.13
20 | U54A U76C | 1.04
21 | U54G C79A | 1.18
22 | A57C U58C | 0.3
23 | A56G C81U | 1.13
24 | A56G C81A | 0.96

Row | Variant | self-cleavage
25 | A56G C81G | 1.22
26 | G55C U78A | 0.97
27 | G55C U78C | 0.94
28 | A56G G61A | 0.63
29 | A56G G61U | 0.62
30 | G55C C62U | 0.22
31 | A56G U78C | 0.73
32 | A56G U78A | 0.91
33 | A56G U78G | 0.96
34 | U54C A56U | 0.52
35 | U54C A56C | 0.38
36 | U54C A56G | 0.64
37 | G55A U80A | 1.15
38 | G55A U80C | 1.09
39 | U54G A57G | 0.43
40 | U54G A57U | 0.25
41 | G55A A65U | 0.27
42 | U54C U74A | 1.25
43 | U54C U74C | 1.21
44 | U54C U74G | 1.39
45 | G55U U80C | 1.06
46 | G55U U80A | 1.11
47 | A56G A75G | 0.64
48 | A56G A75C | 1.12

Row | Variant | self-cleavage
49 | A56G A75U | 0.95
50 | G55A U67A | 0.28
51 | G55A U67C | 0.22
52 | U54C C71A | 0.39
53 | U54C C71U | 0.72
54 | A56G A64G | 0.8
55 | A56G A64C | 0.46
56 | A56G A64U | 0.3
57 | A56G U66C | 0.29
58 | A56G U66G | 0.38
59 | A56G U66A | 0.44
60 | G55A U72C | 0.83
61 | G55A U72A | 0.53
62 | U54C U58A | 0.33
63 | U54C U58C | 0.48
64 | A56G C71U | 0.51
65 | U54G U80C | 0.67
66 | A56U G61A | 0.29
67 | A56U U67A | 0.43
68 | A56U U67G | 0.16
69 | A56U U67C | 0.26
70 | A56G C68U | 0.77
71 | A56G C68A | 0.32
72 | U54C A64G | 0.86

Row | Variant | self-cleavage
73 | U54C A64U | 0.36
74 | U54C A64C | 0.46
75 | G55A A56U | 0.84
76 | G55A A56G | 0.8
77 | U54G U74C | 0.92
78 | U54G U60A | 0.37
79 | U54G U60C | 0.44
80 | U54G U60G | 0.42
81 | G55U U67C | 0.21
82 | A56U G73A | 1.18
83 | U54C G70A | 0.43
84 | A57C A64U | 0.44
85 | A57C A64G | 0.34
86 | U54C U76G | 0.98
87 | U54C U76C | 1.06
88 | U54C U76A | 1.17
89 | G55A A64G | 0.61
90 | G55A A64U | 0.25
91 | A56U G63A | 0.48
92 | A56U G63C | 0.61
93 | U54C U72G | 0.87
94 | U54C U72C | 1.08
95 | U54C U72A | 0.62
96 | U54G G73A | 1.17

Row | Variant | self-cleavage
97 | G55U U69C | 0.48
98 | A56U A57U | 0.59
99 | A56U A57G | 0.47
100 | G55U C79U | 1.16
101 | G55A A75G | 0.4
102 | U54G U67A | 0.57
103 | U54G U67G | 0.14
104 | U54G U67C | 0.32
105 | A57C U60A | 0.14
106 | A56C U69C | 0.12
107 | A56G A65U | 0.25
108 | A56G A65C | 0.15
109 | A56G A65G | 0.32
110 | A57C A75U | 0.58
111 | A56C A57G | 0.5
112 | A56U C79A | 1.12
113 | A56C U78C | 0.49
114 | G55A U74A | 1.18
115 | U54G A65G | 0.3
116 | A56C U80C | 0.93
117 | A56U A64U | 0.28
118 | A56U A64G | 0.51
119 | A56U A64C | 0.19
120 | U54C A65G | 0.49

Row | Variant | self-cleavage
121 | U54C A65U | 0.32
122 | U54C A65C | 0.4
123 | A57C A65G | 0.17
124 | G55U U72C | 0.78
125 | U54C C81G | 1.3
126 | U54C C81U | 1.17
127 | U54C G63U | 1.13
128 | U54C G63C | 1.01
129 | U54C G63A | 0.73
130 | A56U A77G | 0.71
131 | A56U A77C | 0.62
132 | A56U A77U | 0.73
133 | U54G U78A | 1
134 | U54G U78C | 0.68
135 | A56U U72C | 0.81
136 | A56U U72A | 0.46
137 | A56U U72G | 0.5
138 | A57C A77G | 0.45
139 | G55U A56U | 0.7
140 | G55U C81U | 0.6
141 | A56G U76A | 1.07
142 | A56G U76C | 0.85
143 | A56C A64U | 0.18
144 | A56C A64G | 0.49

Row | Variant | self-cleavage
145 | U54G U76C | 0.98
146 | A57C U66C | 0.16
147 | A57C U66A | 0.2
148 | A57G A65C | 0.15
149 | A57G A65G | 0.37
150 | A56G U60A | 0.41
151 | A56G U60G | 0.34
152 | A56G U60C | 0.42
153 | U54C C62U | 0.18
154 | U54C C62A | 0.13
155 | U54C C62G | 0.13
156 | A56C U72A | 0.18
157 | A56C U72C | 0.52
158 | G55U G61A | 0.6
159 | A56G C59A | 0.23
160 | A56G C59G | 0.21
161 | A56G C59U | 0.52
162 | G55A U66C | 0.22
163 | G55C U67A | 0.44
164 | A56C C62A | 0.24
165 | A56U U66C | 0.32
166 | A56U U66A | 0.25
167 | G55C U72A | 0.4
